{"source": "paper PMC8466238", "about": "“Development of High Affinity Calcitonin Analog Fragments Targeting Extracellular Domains of Calcitonin Family Receptors” (Biomolecules, 2021)", "molecules": {"B1": {"name": "calcitonin receptor extracellular domain (hCTR.34–141-H6) (receptor, human, UniProt P30988 34-141, looked up)", "chain": "IEPKPFLYVVGRKKMMDAQYKCYDRMQQLPAYQGEGPYCNRTWDGWLCWDDTPAGVLSYQFCPDYFPDFDPSEKVTKYCDEKGVWFKHPENNRTWSNYTMCNAFTPEK", "notes": "human calcitonin receptor (CTR), extracellular domain, residues 34-141; Secreted from a pHLsec-based vector; also called CTR ECD; purified CTR ECD; source: HEK293T, transiently transfected, secreted to cell culture media, purified (IMAC, SEC)"}, "B2": {"name": "FITC-labeled AC413(6–25) with Y25P mutation (peptide)", "peptide": "{FITC-Ahx}-ANFLVRLQTYPRTNVGANTP-NH2", "SMILES": "CC(C)C[C@H](NC(=O)[C@H](CCCNC(=N)N)NC(=O)[C@@H](NC(=O)[C@H](CC(C)C)NC(=O)[C@H](Cc1ccccc1)NC(=O)[C@H](CC(N)=O)NC(=O)[C@H](C)NC(=O)CCCCCNC(=S)Nc1ccc2c(c1)C(=O)OC21c2ccc(O)cc2Oc2cc(O)ccc21)C(C)C)C(=O)N[C@@H](CCC(N)=O)C(=O)N[C@H](C(=O)N[C@@H](Cc1ccc(O)cc1)C(=O)N1CCC[C@H]1C(=O)N[C@@H](CCCNC(=N)N)C(=O)N[C@H](C(=O)N[C@@H](CC(N)=O)C(=O)N[C@H](C(=O)NCC(=O)N[C@@H](C)C(=O)N[C@@H](CC(N)=O)C(=O)N[C@H](C(=O)N1CCC[C@H]1C(N)=O)[C@@H](C)O)C(C)C)[C@@H](C)O)[C@@H](C)O", "notes": "residues 6-25 of AC413, an antagonistic amylin peptide analog, with Y25P; peptide probe of the FP assay with the AMY receptor ECDs; also called FITC-AC413(6–25) Y25P; source: synthetic peptide (Genscript, HPLC-purified)"}}, "key": {"[1]": {"test_system": "CGRP receptor", "details": "versus CGRP(27–37); cited from earlier work", "source_text": "The mutational strategies for developing high-affinity sCT peptide fragments came from the systemic report on CGRP and its high-affinity analogs. […] This supports the idea that applying affinity-enhancing mutations to the cor ..."}, "[2]": {"test_system": "RAMP3-CTR ECD fusion protein", "test": "FP peptide binding assay of FITC-labeled probes with CTR ECD alone and RAMP3-CTR ECD fusion protein (Figure S1D)", "design": "species or system human", "details": "FP binding with rising receptor ECD concentration", "method": "HEK293S GnTI^− cells were used to express the RAMP3-CTR ECD fusion protein. The general procedures of receptor ECD expression and purification from HEK293S GnTI^− cells were previously described. HEK293S GnTI^− cells were transiently transfected with the DNA expression vector (H-pSL001) using polyethylenimine (PEI) at 1:1.5 ratio (DNA:PEI, w/w). Transfected cells were incubated for 4 days at 37 °C. All protein purification was performed at 4 °C unless otherwise noted. Cell culture media were collected and dialyzed to dialysis buffer overnight. The next day, dialyzed cell culture media were loaded to IMAC chromatography. Peak fractions from IMAC chromatography were spin-concentrated (MWCO 10 kDa) and injected into SEC. […]\nThe overall procedures of FP peptide binding assay with receptor ECDs and FITC-labeled peptide probes were previously described. […] A SpectraiD5 (Molecular Devices, San Jose, CA, USA) was used to measure fluorescence polarization/anisotropy. […] For the saturation binding assay, the anisotropy values were re-calculated when total fluorescence intensity was changed by more than 10% as previously described. However, effects of fluorescence intensity changes on the affinity values (KI) obtained from the competition binding assay was reported to be minimum and re-calculation of anisotropy was not applied. […] Mean and standard deviation of peptide ligand affinity were calculated from them. […]"}, "[3]": {"target": "T1, FITC-labeled sCT(22–32) (salmon, SMILES …)", "T1 construct": "salmon calcitonin (sCT), residues 22-32; numbers count on: the mature 32-residue hormone; peptide probe of the FP assay with the CTR ECD; also called FITC-sCT(22–32); source: synthetic peptide (Genscript, HPLC-purified)", "T1 peptide": "{FITC-Ahx}-YPRTNTGSGTP-NH2", "test": "fluorescence polarisation; saturation binding: FITC-labeled peptide probe (10 nM) with rising receptor ECD concentrations; receptor ECD concentration at half of the maximal anisotropy", "details": "both partners purified"}, "[4]": {"target": "T2, RAMP1-CTR ECD fusion protein (hRAMP1.24–111-(GSA)3-hCTR.34–141-H6) (human, UniProt O60894 24-111; P30988 34-141)", "T2 construct": "human receptor activity-modifying protein 1 (RAMP1), extracellular domain, residues 24-111; linker, printed as (GSA)3; human calcitonin receptor (CTR), extracellular domain, residues 34-141; Secreted from a pHLsec-based vector; also called AMY receptor 1 ECD; RAMP1 ECD-CTR ECD fusion; source: HEK293T, transiently transfected, secreted to cell culture media, purified (IMAC, SEC)", "T2 chain": "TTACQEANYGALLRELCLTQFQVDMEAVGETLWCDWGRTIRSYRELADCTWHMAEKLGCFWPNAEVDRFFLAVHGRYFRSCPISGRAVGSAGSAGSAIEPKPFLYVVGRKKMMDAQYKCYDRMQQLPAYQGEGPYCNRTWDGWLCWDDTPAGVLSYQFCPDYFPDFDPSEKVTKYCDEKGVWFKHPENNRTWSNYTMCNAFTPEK", "test": "fluorescence polarisation; competition binding, full curves: FITC-AC413(6–25) Y25P probe 10 nM, RAMP1-CTR ECD 77 nM, RAMP2-CTR ECD 67 nM or RAMP3-CTR ECD 252 nM, competitive peptide at multiple concentrations, all in solution; KI from non-linear regression of anisotropy", "details": "both partners purified"}, "[5]": {"target": "T3, RAMP2-CTR ECD fusion protein (hRAMP2.55–140-(GSA)3-hCTR.34–141-H6) (human, UniProt O60895 55-140; P30988 34-141)", "T3 construct": "human receptor activity-modifying protein 2 (RAMP2), extracellular domain, residues 55-140; linker, printed as (GSA)3; human calcitonin receptor (CTR), extracellular domain, residues 34-141; Secreted from a pHLsec-based vector; also called AMY receptor 2 ECD; RAMP2 ECD-CTR ECD fusion; source: HEK293T, transiently transfected, secreted to cell culture media, purified (IMAC, SEC)", "T3 chain": "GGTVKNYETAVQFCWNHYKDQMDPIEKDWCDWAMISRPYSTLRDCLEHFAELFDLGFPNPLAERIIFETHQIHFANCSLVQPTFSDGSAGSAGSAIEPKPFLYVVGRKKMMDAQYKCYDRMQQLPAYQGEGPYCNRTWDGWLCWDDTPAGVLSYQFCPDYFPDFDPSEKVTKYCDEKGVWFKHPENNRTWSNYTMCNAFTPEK", "test": "fluorescence polarisation; competition binding, full curves: FITC-AC413(6–25) Y25P probe 10 nM, RAMP1-CTR ECD 77 nM, RAMP2-CTR ECD 67 nM or RAMP3-CTR ECD 252 nM, competitive peptide at multiple concentrations, all in solution; KI from non-linear regression of anisotropy", "details": "both partners purified"}, "[6]": {"target": "T4, RAMP3-CTR ECD fusion protein (hRAMP3.25–112-(GSA)3-hCTR.34–141-H6) (human, UniProt O60896 25-112; P30988 34-141)", "T4 construct": "human receptor activity-modifying protein 3 (RAMP3), extracellular domain, residues 25-112; linker, printed as (GSA)3; human calcitonin receptor (CTR), extracellular domain, residues 34-141; Secreted from a pHLsec-based vector; also called AMY receptor 3 ECD; RAMP3 ECD-CTR ECD fusion protein; source: HEK293S GnTI-, transiently transfected (PEI), secreted to cell culture media, purified (IMAC, SEC)", "T4 chain": "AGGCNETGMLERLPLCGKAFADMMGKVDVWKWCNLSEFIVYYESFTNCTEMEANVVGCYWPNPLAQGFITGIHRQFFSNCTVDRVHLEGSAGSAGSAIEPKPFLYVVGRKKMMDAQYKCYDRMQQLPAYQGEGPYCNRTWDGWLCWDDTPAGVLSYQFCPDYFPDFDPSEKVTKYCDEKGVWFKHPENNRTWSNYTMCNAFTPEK", "test": "fluorescence polarisation; competition binding, full curves: FITC-AC413(6–25) Y25P probe 10 nM, RAMP1-CTR ECD 77 nM, RAMP2-CTR ECD 67 nM or RAMP3-CTR ECD 252 nM, competitive peptide at multiple concentrations, all in solution; KI from non-linear regression of anisotropy", "details": "both partners purified"}}, "note": "The star is where a group is joined. FITC = O=C1OC2(c3ccc(O)cc3Oc3cc(O)ccc32)c2ccc(NC(=S)*)cc21; Ahx = NCCCCCC(=O)O"}
{"molecule": "CGRPmut: human alpha CGRP(27–37) with N31D, S34P, and K35F mutations", "values": [{"measurement": "increase in CGRP affinity for its receptor", "setting": "[1]", "value": 100, "unit": "fold"}]}
{"molecule": "{FITC-Ahx}-ANFLVRLQTYPRTNVGANTP-NH2 [FITC-AC413(6–25) Y25P, FITC-labeled AC413(6–25) with Y25P mutation, probe for AMY receptor ECDs]", "values": [{"measurement": "affinity for the RAMP3-CTR ECD fusion protein compared to FITC-labeled AC413(6–25)", "setting": "[2]", "value": "great affinity increase"}]}
{"molecule": "{FITC-Ahx}-ANFLVRLQTYPRTNVGANTY-NH2 [FITC-AC413(6–25), FITC-labeled fragment of the antagonistic amylin analog AC413, peptide probe]", "values": [{"measurement": "binding for the RAMP3-CTR ECD fusion protein over CTR ECD alone", "setting": "[2]", "value": "selective binding"}]}
{"molecule": "B1", "values": [{"measurement": "receptor ECD concentration that produced a half of the maximal anisotropy with the peptide probe", "setting": "[3]", "value": 500, "unit": "nM"}]}
{"molecule": "B2", "values": [{"measurement": "binding result", "setting": "[4]", "value": "binds"}, {"measurement": "binding result", "setting": "[5]", "value": "binds"}, {"measurement": "binding result", "setting": "[6]", "value": "binds"}]}
